In the nanobody polyreactivity screen of Harvey et al. (2022):

Experiment: yeast display, Sf9 membrane polyspecificity reagent, FACS + sequencing; frameworks hold sequencing errors
Outline: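 In a synthetic yeast display library (Saccharomyces cerevisiae BJ5465), nanobody expression was induced with galactose for 36–48 hours. FACS gates were set low and high (top ~1%) using anti-HA fluorescence for expression and streptavidin fluorescence for binding of the Sf9 membrane reagent. Each polyreactivity label is drawn from the gate of origin.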

Sequence | polyreactivity (PSR sort gate)
QVHLVESGGGLVNAGGSLRLSCAASGRIFSGYAMGWYRQAPGKERELVAAITSVGSTNNADSVKGRFTISRDNAKNTVYLQMNSLKPEDTAVYYCAARGSYARGYDYWGQGTQVTVSS | high polyreactivity
QVHLVESGGGLVQAAGSLRLSCAASGSTFKYNAMGWYRQAPGKERELVAAITRGGRTYYADSVKGRFTISRDNAKNTVYLQMNSLKPEDTEVYYCAAAIPSGTFYAGAYYYWGQGTQVTVSS | high polyreactivity
QVHLVESGGGLVQAGASLRLSCAASGFTFGVNAMGWSRQAPGKERELVAVITSGGNTYYADSVKGRFTISRDNAKNTVYLHMNSLNPEDTAVYYCAAYGRASWERDYWGKGTQVTVSS | low polyreactivity
QVHLVESGGGLVQAGASLRLSCAASGRIFYKYAMGWYRQAPGKERELVAAISYRGGSTYYADSVKGRFTISRDNAKNSVYLQMKSLKPEDNAVYYCAADRWYYSVSTKSDSWGQGTQVTVSS | high polyreactivity
QVHLVESGGGLVQAGCSLRLSCAASGSIFSYYAMGWYRQAPGKERELVAAISVSGGNYADSVKGRFTISRDNAKNTVYLQMNSLKPEDTAVYYCAALNVYGSADVTTLEMDYWGQGTQVTVSS | low polyreactivity
QVHLVESGGGLVQAGGILRLRSAASGSTVYGYAMGWYRQAPGKERELVAAITRSGGSTYYADSVKGRFTISRDNATNKVYLQMNSQKPEDTEFYYCNKYGYKGGDGYDYWGQRTQVTVSS | high polyreactivity
QVHLVESGGGLVQAGGILRLSCAASGLTFRYYTMGWYRQEPGKERELVASITIRGGSTYYADSVKGRFTISRDNAKNTVYLQMNSLKPEDTAVYYCNTRYGFSFGYWGQGTQVTVSS | high polyreactivity
QVHLVESGGGLVQAGGILRLSCAASMVWYRQAPGKERELVAAINTRTGTTYYADSVKGRFTISRDNAKNTVYLQMNSLKPEDTAVYYCAARTYRTRYYYWGQGTQVTVSS | high polyreactivity
QVHLVESGGGLVQAGGRLRLSCAASGSIFDRYAMGWYRQAPGKEREFVARIRSSTGGTDYADSVKGRFTISRDNAKNTVYLQMNILKPEDTAVYYCAASSSHYYYWIQGSYWGRGVYWGQGSQVTVSS | high polyreactivity
QVHLVESGGGLVQAGGRLRLSCAASGSIFRLYAMGWYRQAPGKERELVARITTGGSTNYADSVKGRFTISLDNAKNTVYFQMNSLKPEDTAVYYCNGGVLVTAQMGWQKYSYWGQGSQVTVSS | high polyreactivity
QVHLVESGGGLVQAGGSHRLSCASSGFIFYFYTMGWYRQAPGKERELVAGITWLDGSTYYADSVKGRFTISRDNAKNTVYLQMNSLKPEDTAVYYCAVDYDLVVSPYYYWGQGTQVTVSS | low polyreactivity
QVHLVESGGGLVQAGGSIRLSCAASGSTFLVYAMGWYRPAPGKGRELVAAISRSGSSTYYADSVKGRFTISRDNAMNTVYLQMIRLKPEDTAVYYCNAYSQYWLGNNYWGQGTQVTVSS | high polyreactivity
QVHLVESGGGLVQAGGSLRISCAASGFTFRKYSMGWYRQAPGKERELVAGITSGGSTNNADSVKGRFTISRDNAKNTVYLQMNSLKPEDTAVYYCNAARYYAYIGDYWGQCTQVTVSS | high polyreactivity
QVHLVESGGGLVQAGGSLRISCAASGRIFWWYAMGWYRQAPGKERELVAAISTGSRTYYADSVKGRFTISRDNAKNTVFLQMNRLKPEDTAVYYCVADGLYSVSRSSIFEYWGHGTQVTVSS | low polyreactivity
QVHLVESGGGLVQAGGSLRISCAASGRTFQVYAMGRYRQAPGKERELVAAISLTGGGTYYADSVKGRFTISRDYANNTVYLQMNSLKPEDTAVYYCAVRRRTHLGFLYEYWGQGTQVTVSS | high polyreactivity
QVHLVESGGGLVQAGGSLRLICAASGSIFSAYALGWYRQAPGKERELVAAITWRGGSTYYADSVKGRFTISRDNAKNTVYLQMNSLKPEDTAVYYCAKYYYYLRSARKYDYWGQGTQVTVSS | high polyreactivity
QVHLVESGGGLVQAGGSLRLICAASGSTFLYYAKGWYRQAPGNEMELVAANSQSSASTYYADSVKGRFTISRDNAKTTIYFQIISLKPEDTAVYYCAADYWSVPYIYEYWRQGTQVTVSS | high polyreactivity
QVHLVESGGGLVQAGGSLRLICAASGYIFQRNAMGWYRQAPGKEREFVAAITRSGGTTYYADSVKGRFTISRDNAKNTVYLQMNSLKPEDTAGYYCNAPRSDRSVYHYHYWGQGTQVTVSS | low polyreactivity
QVHLVESGGGLVQAGGSLRLRSAASGRTFGWNVMGWYRQAPGKERELVAAISGSGGSTYYADSVKGRFTISRDNAKNTVYLQMNSLKPEDTAVYYCDALYGPGREYDYWGQGTQVTVSS | low polyreactivity
QVHLVESGGGLVQAGGSLRLSCAASASTYGSNSMGWYRQAPGKERELVAAITLPGASTYYADSVKGRFTISRDNAKNTVSLEMNSLKGEDTSVYSCAAQIHPRRDYSAFDYWGPGTQVTVSS | low polyreactivity
QVHLVESGGGLVQAGGSLRLSCAASGFIFDKYAMGWYRQAPGKERELVAAITDTGGNTYYADSVKGRFTISRDNAKNTVYLQMNSLKPEDTAVYYCNADYNDYQTYSATTYEYWGQGTQVTVSS | low polyreactivity

Sequence | polyreactivity (PSR sort gate)
QVHLVESGGGLVQAGGSLRLSCAASGFIFGSNAMGWSRQAPGKERELVAAITYSGASTYYADSVKGRFTISRDNAKNTVYLQMNSLKPEDTAVYYCNAVYSSVVDGSEGFDYWGQGTQVTVSS | low polyreactivity
QVHLVESGGGLVQAGGSLRLSCAASGFIFSFYGMGWSRHAPAKESELVAAISSGGTTYYADSVKGRFTISRDNAKNSVYLQMNSLKPEDTAVYYCAGRVARRTTSVFSYFSRYNYWGQGTQVSVSS | high polyreactivity
QVHLVESGGGLVQAGGSLRLSCAASGFIFSWYDMGWYRQAPGKERELVAAINWSGGSTYYADSVKGRFTISRDNAKNTVYLQIISLKPEDTAVYYCAAVRQSQFEYWGQGTQVTVSS | high polyreactivity
QVHLVESGGGLVQAGGSLRLSCAASGFTFGPYAMGWYRQAPGKERELVAGITWSGASTYYADSVKGRFTISRDNAKNTVYLQMNSLKPEDTAVYYCARYYRLGSRYDYWGQGTQVTLSS | low polyreactivity
QVHLVESGGGLVQAGGSLRLSCAASGFTFGVYAMGWYRQAPGKEREFVAAISTTVGSTYYADSVKGRFTISRDNAKNTVYLQLNSLKPEDTAVYYCAAEYTGYINYYIYEYWGQGTQVTVSS | low polyreactivity
QVHLVESGGGLVQAGGSLRLSCAASGFTFGWNAMGWYRQAPGKERELVASINSGGSTYNADSVKGRFTISRDNAKNTVYLEMNFLKPEDTAVYYCATAPYVTSRRYGPYEYWGQGSQVTVSS | low polyreactivity
QVHLVESGGGLVQAGGSLRLSCAASGFTFNRYAMGWYRQAPGKERELVATISSGGNTNYADSVKGRFTISRDNAKKTVYLQMNSLKPEDTAVYYCNADRWFHYYSYNYWGQGTQVTVSS | high polyreactivity
QVHLVESGGGLVQAGGSLRLSCAASGFTILTYGMGWYRQAPGKERELVAAIRWSGGRTYYADSVKGRFTISRDNAKNTVYLQMNSLKPEDTAVYYCAARYKFSTIRGVDYWGQGTQVTVSS | high polyreactivity
QVHLVESGGGLVQAGGSLRLSCAASGFTLYGNVMGWYRPAPGKERELVAAISWSTDSTYYADSLKGRFTISRDNAKNTVYLQMNSLKPEDTAIYYCAADYSHLPIAWYYYWGQGTQVTVSS | low polyreactivity
QVHLVESGGGLVQAGGSLRLSCAASGGIFDYYAMGWYRQAPGKERELVATISRGGSTYYADSVKGRFTISRDNAKNTVYLQMNSLKPEDTAVYYCAARQTRYWYRAWFVEHDYWGQGTKVTVSS | high polyreactivity
QVHLVESGGGLVQAGGSLRLSCAASGGIFYTYAMGWYRQAPGKEREMVAAISWRGGSTYYADSVKGRFTISRDNAKNTVYLQMNSLNPEDSAVYYCNKVTDYYYQIYWSYPYFTPDYFWGQGTQVTVSS | high polyreactivity
QVHLVESGGGLVQAGGSLRLSCAASGGTFDKNAMGWYSQAPGKESEFVAAITYGGGSTYYADSVKGRFTISRDNAKNTVYLQMTSLKPEDSAVYYCAVAIITYPYATGSSYDYWGQGTQVTVSS | low polyreactivity
QVHLVESGGGLVQAGGSLRLSCAASGGTFLVNAMGWYRQAPGKERELVAAINWSGGGTTYADSVKGRFTISRDNAKNTVYLQMNSLKPEDTAVYYCATGSYTTYGYGYWGQGTQVTVSS | high polyreactivity
QVHLVESGGGLVQAGGSLRLSCAASGGTFRTYAMGWYRQAPGTERELVAAITWRGGSTYYADSVKGRFTISRDNAKNTVYLQMNSLKPEDTAVYYCAARGAYQWSFYKDDYWGQGTQVTVSS | high polyreactivity
QVHLVESGGGLVQAGGSLRLSCAASGIIFDEYAMGWYSQAPGKERELVAAINWSGGITYYADSVKGRFTISRDNAKNTVYLQMNSLKPEDTAVYYCNKDPLVFDYWGQGTQVTVSS | low polyreactivity
QVHLVESGGGLVQAGGSLRLSCAASGIISGGNAMGWYRQAPGKDRELVASINSGGSTNYADSVKGRFTISRDNALNSLYLKMNSLKPDDTAVYYGAGDYIDSTAYDYWGQGTKVTVSS | low polyreactivity
QVHLVESGGGLVQAGGSLRLSCAASGITFRRNTMGWYRQAPGKERELVATISWRGGNTFYADSVKRRFTISRDNAKNTVYLQMHSLKPEDTAVYYCAVAFKGPSGYQYDYWGQGTQVTVSS | high polyreactivity
QVHLVESGGGLVQAGGSLRLSCAASGITFYLYAMGRYRQAPAKERELVAAINASGGSTYYADSVKGRFTISRDNAKNTVYLQMNSLKPEDSGVYYCAASTKKTRGFNYWGQGSQVTVSS | high polyreactivity
QVHLVESGGGLVQAGGSLRLSCAASGLIFLYYAMGWYRQAPGKERELVAAISSGGSTYYADSVKGRFTISRDNAKNTVFLQMNSLTPEDTAVYYCAAADSYSSLEYWGQGTQVTVSS | high polyreactivity
QVHLVESGGGLVQAGGSLRLSCAASGLIFYDNMGWYRQAPGKERELVAAISSSGGSTSYADSVKGRFTISRDNAKNTVYLQMYSLKPEDTAVYYCAADSYPAYLGFVGYDYWGQGTQVTVSS | low polyreactivity
